Data as given in article PMC3593967 (Molecular pharmaceutics, 2013).
Bridge positions count the residues as written; N and C are the ends. Square brackets hold non-standard residues; d marks the D form. Peptide text beside a SMILES is read from it. * marks the point of attachment. DOTA(p-xylylenediamine) = O=C(O)CN1CCN(CC(=O)O)CCN(CC(=O)NCc2ccc(CN*)cc2)CCN(CC(=O)O)CC1; DOTA = O=C(O)CN1CCN(CC(=O)O)CCN(CC(=O)*)CCN(CC(=O)O)CC1; Tyr(3-Cl) = N[C@@H](Cc1ccc(O)c(Cl)c1)C(=O)O; Hyp = O=C(O)[C@@H]1C[C@@H](O)CN1

How the values were obtained:
[1] = Biodistribution in rat model of carotid artery thrombosis; type: in vivo; conditions: male, Wistar, in vivo, iv, total radioactivity, Biodistribution
arterial thrombus = assay: as above; type: in vivo; conditions: 120 min post injection, ratio of %ID/g

Q: Which tissue uptake at 2 h ([1]; blood) does the source give for `CC[C@H](C)[C@H](NC(=O)[C@H](Cc1c[nH]c2ccccc12)NC(=O)[C@@H]1CSSC[C@H](NC(=O)[C@H](CCC(=O)O)NC(=O)[C@H](Cc2c[nH]c3ccccc23)NC(=O)CN2CCN(CC(=O)O)CCN(CC(=O)O)CCN(CC(=O)O)CC2)C(=O)N2C[C@H](O)C[C@H]2C(=O)N[C@@H](Cc2ccc(O)c(Cl)c2)C(=O)NCC(=O)N[C@@H](CC(C)C)C(=O)N1)C(=O)N[C@@H](CCC(N)=O)C(=O)NCc1ccc(CNC(=O)CN2CCN(CC(=O)O)CCN(CC(=O)O)CCN(CC(=O)O)CC2)cc1` [FBP3] ({DOTA}-WEC[Hyp][Tyr(3-Cl)]GLCWIQ-{DOTA(p-xylylenediamine)}; disulfide 3-8) here?
A: 0.184 ± 0.026 %ID/g

Q: What about the tissue uptake at 2 h ([1]; bone) of the same compound?
A: 0.041 ± 0.011 %ID/g

Q: What about the tissue uptake at 2 h ([1]; brain) of the same compound?
A: 0.011 ± 0.003 %ID/g

Q: And the tissue uptake at 2 h ([1]; clot)?
A: 0.183 ± 0.088 %ID/g

Q: What about the tissue uptake at 2 h ([1]; heart) of the same compound?
A: 0.082 ± 0.01 %ID/g

Q: And the tissue uptake at 2 h ([1]; intestine)?
A: 0.184 ± 0.053 %ID/g

Q: What about the tissue uptake at 2 h ([1]; kidney) of the same compound?
A: 0.621 ± 0.186 %ID/g

Q: And the tissue uptake at 2 h ([1]; liver)?
A: 1.46 ± 0.292 %ID/g

Q: And the tissue uptake at 2 h ([1]; lungs)?
A: 0.066 ± 0.008 %ID/g

Q: And the tissue uptake at 2 h ([1]; muscle)?
A: 0.009 ± 0.001 %ID/g

Q: What about the tissue uptake at 2 h ([1]; spleen) of the same compound?
A: 0.04 ± 0.006 %ID/g

Q: And the “thrombus uptake relative to blood” value (arterial thrombus)?
A: no difference

Q: With `CC[C@H](C)[C@H](NC(=O)[C@H](Cc1ccc(O)cc1)NC(=O)[C@@H]1CSSC[C@H](NC(=O)[C@@H](CCC(=O)O)NC(=O)[C@H](Cc2ccc(O)cc2)NC(=O)CN2CCN(CC(=O)O)CCN(CC(=O)O)CCN(CC(=O)O)CC2)C(=O)N2C[C@H](O)C[C@H]2C(=O)N[C@@H](Cc2ccc(O)c(Cl)c2)C(=O)NCC(=O)N[C@@H](CC(C)C)C(=O)N1)C(=O)N[C@@H](CCC(N)=O)C(=O)NCc1ccc(CNC(=O)CN2CCN(CC(=O)O)CCN(CC(=O)O)CCN(CC(=O)O)CC2)cc1` [FBP1] ({DOTA}-Y[dE]C[Hyp][Tyr(3-Cl)]GLCYIQ-{DOTA(p-xylylenediamine)}; disulfide 3-8) as the compound, how does the “thrombus uptake relative to blood” value (arterial thrombus) read?
A: > 2.5 fold

Q: Which results are given for `CC[C@H](C)[C@H](NC(=O)[C@H](Cc1c[nH]cn1)NC(=O)[C@@H]1CSSC[C@H](NC(=O)[C@H](Cc2c[nH]cn2)NC(=O)[C@H](Cc2ccccc2)NC(=O)CN2CCN(CC(=O)O)CCN(CC(=O)O)CCN(CC(=O)O)CC2)C(=O)N2C[C@H](O)C[C@H]2C(=O)N[C@@H](Cc2ccc(O)c(Cl)c2)C(=O)N[C@@H](CC(=O)O)C(=O)N[C@@H](CC(C)C)C(=O)N1)C(=O)N[C@@H](CC(C)C)C(=O)NCc1ccc(CNC(=O)CN2CCN(CC(=O)O)CCN(CC(=O)O)CCN(CC(=O)O)CC2)cc1` [FBP2] ({DOTA}-FHC[Hyp][Tyr(3-Cl)]DLCHIL-{DOTA(p-xylylenediamine)}; disulfide 3-8)?
A: tissue uptake at 2 h ([1]; blood): 0.164 ± 0.016 %ID/g; tissue uptake at 2 h ([1]; bone): 0.043 ± 0.015 %ID/g; tissue uptake at 2 h ([1]; brain): 0.017 ± 0.004 %ID/g; tissue uptake at 2 h ([1]; clot): 0.445 ± 0.102 %ID/g; tissue uptake at 2 h ([1]; heart): 0.074 ± 0.011 %ID/g; tissue uptake at 2 h ([1]; intestine): 0.278 ± 0.095 %ID/g; tissue uptake at 2 h ([1]; kidney): 2.72 ± 0.848 %ID/g; tissue uptake at 2 h ([1]; liver): 0.617 ± 0.187 %ID/g; tissue uptake at 2 h ([1]; lungs): 0.048 ± 0.01 %ID/g; tissue uptake at 2 h ([1]; muscle): 0.012 ± 0.003 %ID/g; tissue uptake at 2 h ([1]; spleen): 0.071 ± 0.016 %ID/g; thrombus uptake relative to blood (arterial thrombus): > 2.5 fold
